Measurements reported in patent US10428140B2, “Anti-EphA4 antibody” (EISAI R&D MANAGEMENT CO., LTD., priority 2015, dated 2019).

Assays:
Assay in all cases: Selectivity ELISA of humanized antibodies for human Eph receptor
Type in all cases: binding
Conditions in all cases: coated protein 1 nM
[1] = molecular target: T1, human EphA5 (Homo sapiens, UniProt P54756)
T1 construct: a protein of the extracellular region of each human Eph receptor fused with the SEAP protein and the His tag; made in house; host or cells: Expi293F cells (culture supernatant)
T1 sequence (P54756 25-573 limits assumed): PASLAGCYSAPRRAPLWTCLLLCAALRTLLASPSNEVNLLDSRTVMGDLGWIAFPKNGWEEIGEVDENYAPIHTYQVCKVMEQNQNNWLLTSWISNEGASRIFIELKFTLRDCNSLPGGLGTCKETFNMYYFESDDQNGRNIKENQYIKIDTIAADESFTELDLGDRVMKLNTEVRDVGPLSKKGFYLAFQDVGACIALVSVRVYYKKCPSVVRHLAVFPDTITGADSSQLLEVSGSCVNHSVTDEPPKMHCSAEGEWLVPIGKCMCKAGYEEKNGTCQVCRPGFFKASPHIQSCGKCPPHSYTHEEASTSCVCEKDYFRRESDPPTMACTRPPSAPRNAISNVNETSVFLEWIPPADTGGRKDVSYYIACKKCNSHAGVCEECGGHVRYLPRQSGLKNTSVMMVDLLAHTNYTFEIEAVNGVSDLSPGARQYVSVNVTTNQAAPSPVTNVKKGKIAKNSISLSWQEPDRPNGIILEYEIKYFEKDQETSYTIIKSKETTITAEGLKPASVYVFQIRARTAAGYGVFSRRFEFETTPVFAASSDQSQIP
Summary of the method: (§1)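 His-tagged SEAP fusions of each human Eph receptor extracellular region, from Expi293F supernatants, were captured at 1 nM on anti-His-coated wells. Humanized antibody was bound 1 h at room temperature, then detected with HRP […] IgG. TMB development was acid-stopped and read at 450 nm.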

[2] = molecular target: SEAP-His (Homo sapiens, UniProt P05187)
Sequence of SEAP-His (P05187 23-511 limits assumed): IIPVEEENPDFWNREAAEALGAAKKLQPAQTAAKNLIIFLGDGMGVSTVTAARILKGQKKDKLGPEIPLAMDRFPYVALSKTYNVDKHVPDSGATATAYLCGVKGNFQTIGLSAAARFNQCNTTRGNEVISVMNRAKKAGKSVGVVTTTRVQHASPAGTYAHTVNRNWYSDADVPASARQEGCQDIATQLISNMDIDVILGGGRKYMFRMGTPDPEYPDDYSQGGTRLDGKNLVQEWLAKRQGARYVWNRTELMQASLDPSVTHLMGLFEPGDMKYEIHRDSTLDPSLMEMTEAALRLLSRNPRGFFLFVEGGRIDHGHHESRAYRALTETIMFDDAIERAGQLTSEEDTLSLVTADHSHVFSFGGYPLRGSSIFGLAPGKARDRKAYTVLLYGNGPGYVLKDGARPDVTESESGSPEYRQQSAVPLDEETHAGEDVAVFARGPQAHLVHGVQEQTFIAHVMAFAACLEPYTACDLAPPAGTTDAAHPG
Summary of the method: as §1

[3] = molecular target: T2, human EphA2 (Homo sapiens, UniProt P29317)
T2 construct: a protein of the extracellular region of each human Eph receptor fused with the SEAP protein and the His tag; made in house; host or cells: Expi293F cells (culture supernatant)
T2 sequence (P29317 24-537 limits assumed): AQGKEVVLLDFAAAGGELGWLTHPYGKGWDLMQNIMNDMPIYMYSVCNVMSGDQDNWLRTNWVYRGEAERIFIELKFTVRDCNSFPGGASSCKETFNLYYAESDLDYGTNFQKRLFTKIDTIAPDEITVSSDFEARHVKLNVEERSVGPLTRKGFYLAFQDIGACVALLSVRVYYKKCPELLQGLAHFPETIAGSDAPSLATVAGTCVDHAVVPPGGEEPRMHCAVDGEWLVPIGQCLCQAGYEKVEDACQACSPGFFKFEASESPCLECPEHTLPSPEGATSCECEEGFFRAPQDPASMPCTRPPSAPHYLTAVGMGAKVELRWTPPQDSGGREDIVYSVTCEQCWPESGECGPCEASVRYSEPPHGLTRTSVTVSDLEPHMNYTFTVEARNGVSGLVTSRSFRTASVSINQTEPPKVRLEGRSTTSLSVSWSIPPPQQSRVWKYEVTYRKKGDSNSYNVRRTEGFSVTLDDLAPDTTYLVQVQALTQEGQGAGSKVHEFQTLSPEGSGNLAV
Summary of the method: as §1

[4] = molecular target: T3, human EphB3 (Homo sapiens, UniProt P54753)
T3 construct: a protein of the extracellular region of each human Eph receptor fused with the SEAP protein and the His tag; made in house; host or cells: Expi293F cells
T3 sequence (P54753 34-559 limits assumed): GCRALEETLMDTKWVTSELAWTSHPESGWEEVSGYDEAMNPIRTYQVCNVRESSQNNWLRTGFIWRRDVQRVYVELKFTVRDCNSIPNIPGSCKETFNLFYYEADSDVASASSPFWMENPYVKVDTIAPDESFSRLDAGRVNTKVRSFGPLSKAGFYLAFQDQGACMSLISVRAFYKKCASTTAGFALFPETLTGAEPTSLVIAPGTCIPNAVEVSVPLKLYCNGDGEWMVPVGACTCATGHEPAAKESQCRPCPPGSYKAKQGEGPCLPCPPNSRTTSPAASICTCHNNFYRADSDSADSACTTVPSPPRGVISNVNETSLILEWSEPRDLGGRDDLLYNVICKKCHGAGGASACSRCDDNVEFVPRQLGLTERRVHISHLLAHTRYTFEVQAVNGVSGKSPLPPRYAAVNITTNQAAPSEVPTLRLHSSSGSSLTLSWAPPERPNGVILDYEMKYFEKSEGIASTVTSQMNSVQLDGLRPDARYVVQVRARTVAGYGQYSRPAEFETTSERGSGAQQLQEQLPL
Summary of the method: as §1

[5] = molecular target: T4, human EphB2 (Homo sapiens, UniProt P29323)
T4 construct: a protein of the extracellular region of each human Eph receptor fused with the SEAP protein and the His tag; made in house; host or cells: Expi293F cells
T4 sequence (P29323 19-543 limits assumed): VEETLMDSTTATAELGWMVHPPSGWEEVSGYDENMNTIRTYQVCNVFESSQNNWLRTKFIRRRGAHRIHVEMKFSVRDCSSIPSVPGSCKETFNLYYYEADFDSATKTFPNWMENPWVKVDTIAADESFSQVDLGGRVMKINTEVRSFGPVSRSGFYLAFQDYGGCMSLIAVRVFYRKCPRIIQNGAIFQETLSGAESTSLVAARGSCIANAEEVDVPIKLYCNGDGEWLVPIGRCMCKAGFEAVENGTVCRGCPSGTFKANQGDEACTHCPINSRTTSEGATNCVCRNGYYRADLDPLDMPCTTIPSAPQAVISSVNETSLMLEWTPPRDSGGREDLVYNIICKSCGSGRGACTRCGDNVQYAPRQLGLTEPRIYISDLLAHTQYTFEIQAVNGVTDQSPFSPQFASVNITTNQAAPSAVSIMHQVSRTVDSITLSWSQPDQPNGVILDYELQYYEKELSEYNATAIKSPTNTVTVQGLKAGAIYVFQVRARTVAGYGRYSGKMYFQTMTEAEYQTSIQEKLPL
Summary of the method: as §1

B1: 144 (antibody, V domains shown)
VH: QVQLVQSGSELKKPGASVKVSCKASGYTFTDYSMHWVRQAPGQGLEWMGWINTETGEPTYADDFKGRFVFSLDTSVSTAYLQISSLKAEDTAVYYCARIPLYYYGSRYWYFDVWGQGTTVTVSS
VL: DIQMTQSPSSLSASVGDRVTITCRASENIYRNLAWYQQKPGKAPQLLLYAATNLADGVPSRFSGSGSGTDYTLTISSLQPEDFATYYCQHFWGTPWTFGQGTKVEIK
modifications: synthetic humanized antibody heavy chain variable region sequence; synthetic humanized antibody light chain variable region sequence
[1]
  hEphA5-SEAP-: absorbance at 450 nm, percentage with respect to hEphA4-SEAP-His as 100%: 5.6%
[2]
  SEAP-His: absorbance at 450 nm, percentage with respect to hEphA4-SEAP-His as 100%: 5.7%
[3]
  hEphA2-SEAP-: absorbance at 450 nm, percentage with respect to hEphA4-SEAP-His as 100%: 5.6%
[4]
  hEphB3-SEAP-: absorbance at 450 nm, percentage with respect to hEphA4-SEAP-His as 100%: 5.8%
[5]
  hEphB2-SEAP-: absorbance at 450 nm, percentage with respect to hEphA4-SEAP-His as 100%: 5.7%

B2: 133 (antibody, V domains shown)
VH: QVQLVQSGSELKKPGASVKVSCKASGYTFTDYSMHWVRQAPGQGLEWMGWINTETGEPTYAQGFTGRFVFSLDTSVSTAYLQISSLKAEDTAVYYCARIPLYYYGSRYWYFDVWGQGTTVTVSS
VL: EIVMTQSPATLSVSPGERATLSCRASENIYRNLAWYQQKPGQSPRLLIYAATNLADGIPARFSGSGSGTEYTLTISSLQSEDFAVYYCQHFWGTPWTFGQGTKVEIK
modifications: synthetic humanized antibody heavy chain variable region sequence; synthetic humanized antibody light chain variable region sequence
[1]
  hEphA5-SEAP-: absorbance at 450 nm, percentage with respect to hEphA4-SEAP-His as 100%: 4.7%
[2]
  SEAP-His: absorbance at 450 nm, percentage with respect to hEphA4-SEAP-His as 100%: 4.7%
[3]
  hEphA2-SEAP-: absorbance at 450 nm, percentage with respect to hEphA4-SEAP-His as 100%: 4.7%
[4]
  hEphB3-SEAP-: absorbance at 450 nm, percentage with respect to hEphA4-SEAP-His as 100%: 4.7%
[5]
  hEphB2-SEAP-: absorbance at 450 nm, percentage with respect to hEphA4-SEAP-His as 100%: 4.6%

B3: 160 (antibody, V domains shown)
VH: QIQLVQSGSELKKPGASVKVSCKASGYTFTDYSMHWVRQAPGQGLKWMGWINTETGEPTYADDFKGRFVFSLDTSVSTAYLQISSLKAEDTAVYYCARIPLYYYGSRYWYFDVWGQGTTVTVSS
VL: DIQMTQSPSSLSASVGDRVTITCRASENIYRNLAWYQQKPGKAPQLLLYAATNLADGVPSRFSGSGSGTDYTLTISSLQPEDFATYYCQHFWGTPWTFGQGTKVEIK
modifications: synthetic humanized antibody heavy chain variable region sequence; synthetic humanized antibody light chain variable region sequence
[1]
  hEphA5-SEAP-: absorbance at 450 nm, percentage with respect to hEphA4-SEAP-His as 100%: 6.5%
[2]
  SEAP-His: absorbance at 450 nm, percentage with respect to hEphA4-SEAP-His as 100%: 6.3%
[3]
  hEphA2-SEAP-: absorbance at 450 nm, percentage with respect to hEphA4-SEAP-His as 100%: 6.1%
[4]
  hEphB3-SEAP-: absorbance at 450 nm, percentage with respect to hEphA4-SEAP-His as 100%: 6.2%
[5]
  hEphB2-SEAP-: absorbance at 450 nm, percentage with respect to hEphA4-SEAP-His as 100%: 6.2%

B4: 135 (antibody, V domains shown)
VH: QVQLVQSGSELKKPGASVKVSCKASGYTFTDYSMHWVRQAPGQGLEWMGWINTETGEPTYADDFKGRFVFSLDTSVSTAYLQISSLKAEDTAVYYCARIPLYYYGSRYWYFDVWGQGTTVTVSS
VL: EIVMTQSPATLSVSPGERATLSCRASENIYRNLAWYQQKPGQSPRLLIYAATNLADGIPARFSGSGSGTEYTLTISSLQSEDFAVYYCQHFWGTPWTFGQGTKVEIK
modifications: synthetic humanized antibody heavy chain variable region sequence; synthetic humanized antibody light chain variable region sequence
[1]
  hEphA5-SEAP-: absorbance at 450 nm, percentage with respect to hEphA4-SEAP-His as 100%: 5.0%
[2]
  SEAP-His: absorbance at 450 nm, percentage with respect to hEphA4-SEAP-His as 100%: 5.3%
[3]
  hEphA2-SEAP-: absorbance at 450 nm, percentage with respect to hEphA4-SEAP-His as 100%: 5.0%
[4]
  hEphB3-SEAP-: absorbance at 450 nm, percentage with respect to hEphA4-SEAP-His as 100%: 5.0%
[5]
  hEphB2-SEAP-: absorbance at 450 nm, percentage with respect to hEphA4-SEAP-His as 100%: 5.0%

B5: 134 (antibody, V domains shown)
VH: QVQLVQSGSELKKPGASVKVSCKASGYTFTDYSMHWVRQAPGQGLKWMGWINTETGEPTYAQGFTGRFVFSLDTSVSTAYLQISSLKAEDTAVYYCARIPLYYYGSRYWYFDVWGQGTTVTVSS
VL: EIVMTQSPATLSVSPGERATLSCRASENIYRNLAWYQQKPGQSPRLLIYAATNLADGIPARFSGSGSGTEYTLTISSLQSEDFAVYYCQHFWGTPWTFGQGTKVEIK
modifications: synthetic humanized antibody heavy chain variable region sequence; synthetic humanized antibody light chain variable region sequence
[1]
  hEphA5-SEAP-: absorbance at 450 nm, percentage with respect to hEphA4-SEAP-His as 100%: 5.2%
[2]
  SEAP-His: absorbance at 450 nm, percentage with respect to hEphA4-SEAP-His as 100%: 5.1%
[3]
  hEphA2-SEAP-: absorbance at 450 nm, percentage with respect to hEphA4-SEAP-His as 100%: 5.0%
[4]
  hEphB3-SEAP-: absorbance at 450 nm, percentage with respect to hEphA4-SEAP-His as 100%: 5.2%
[5]
  hEphB2-SEAP-: absorbance at 450 nm, percentage with respect to hEphA4-SEAP-His as 100%: 5.1%

B6: 132 (antibody, V domains shown)
VH: QIQLVQSGSELKKPGASVKVSCKASGYTFTDYSMHWVRQAPGQGLKWMGWINTETGEPTYAQGFTGRFVFSLDTSVSTAYLQISSLKAEDTAVYYCARIPLYYYGSRYWYFDVWGQGTTVTVSS
VL: EIVMTQSPATLSVSPGERATLSCRASENIYRNLAWYQQKPGQSPRLLIYAATNLADGIPARFSGSGSGTEYTLTISSLQSEDFAVYYCQHFWGTPWTFGQGTKVEIK
modifications: synthetic humanized antibody heavy chain variable region sequence; synthetic humanized antibody light chain variable region sequence
[1]
  hEphA5-SEAP-: absorbance at 450 nm, percentage with respect to hEphA4-SEAP-His as 100%: 4.7%
[2]
  SEAP-His: absorbance at 450 nm, percentage with respect to hEphA4-SEAP-His as 100%: 4.9%
[3]
  hEphA2-SEAP-: absorbance at 450 nm, percentage with respect to hEphA4-SEAP-His as 100%: 4.8%
[4]
  hEphB3-SEAP-: absorbance at 450 nm, percentage with respect to hEphA4-SEAP-His as 100%: 4.7%
[5]
  hEphB2-SEAP-: absorbance at 450 nm, percentage with respect to hEphA4-SEAP-His as 100%: 4.7%

B7: 159 (antibody, V domains shown)
VH: QVQLVQSGSELKKPGASVKVSCKASGYTFTDYSMHWVRQAPGQGLKWMGWINTETGEPTYADDFKGRFVFSLDTSVSTAYLQISSLKAEDTAVYYCARIPLYYYGSRYWYFDVWGQGTTVTVSS
VL: DIQMTQSPSSLSASVGDRVTITCRASENIYRNLAWYQQKPGKAPQLLLYAATNLADGVPSRFSGSGSGTDYTLTISSLQPEDFATYYCQHFWGTPWTFGQGTKVEIK
modifications: synthetic humanized antibody heavy chain variable region sequence; synthetic humanized antibody light chain variable region sequence
[1]
  hEphA5-SEAP-: absorbance at 450 nm, percentage with respect to hEphA4-SEAP-His as 100%: 5.5%
[2]
  SEAP-His: absorbance at 450 nm, percentage with respect to hEphA4-SEAP-His as 100%: 5.3%
[3]
  hEphA2-SEAP-: absorbance at 450 nm, percentage with respect to hEphA4-SEAP-His as 100%: 5.4%
[4]
  hEphB3-SEAP-: absorbance at 450 nm, percentage with respect to hEphA4-SEAP-His as 100%: 5.5%
[5]
  hEphB2-SEAP-: absorbance at 450 nm, percentage with respect to hEphA4-SEAP-His as 100%: 5.4%
